Among the data in publication PMC5073374 are stoichiometry N values, retold here.

The target of the test is Link module from human TSG-6 (Link_TSG6) (human) (UniProt P98066). Kind of test: AUC.

The term stoichiometry N denotes a count of units in the complex or per binding partner. “Link module from human TSG-6 (Link_TSG6) (from UniProt P98066 36-133) (domain or fragment)” gave a stoichiometry N of 2.
